What is called stoichiometry N is the number of molecules, sites or subunits per partner or assembly.

Values joined by “and” are separate entries in the source; they are usually repeats but may differ in a detail not shown here. Identical values can stand only once.

For one molecule, stoichiometry N results are on record in PMC9271825.

The assay has as its target T1, Human Claudin-7 (Cldn7), wild type, His-tagged (human), O95471.
T1 chain: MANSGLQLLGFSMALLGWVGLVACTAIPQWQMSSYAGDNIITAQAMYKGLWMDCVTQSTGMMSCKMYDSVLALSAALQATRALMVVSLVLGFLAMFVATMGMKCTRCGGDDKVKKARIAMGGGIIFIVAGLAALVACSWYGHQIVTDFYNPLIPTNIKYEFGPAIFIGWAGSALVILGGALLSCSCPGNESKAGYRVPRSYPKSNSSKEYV
In words: SDS-PAGE and Western blot of SDS-stable oligomers; purified Cldn7 (IMAC eluate) on 10% SDS-PAGE, detected with an anti-His-tag antibody. Particulars: remark: other sources report otherwise. Background: A western blot detects proteins with antibodies after separation by electrophoresis.

B1: Human Claudin-7 (Cldn7), wild type, His-tagged, O95471 1-211 (natural protein)
chain: MANSGLQLLGFSMALLGWVGLVACTAIPQWQMSSYAGDNIITAQAMYKGLWMDCVTQSTGMMSCKMYDSVLALSAALQATRALMVVSLVLGFLAMFVATMGMKCTRCGGDDKVKKARIAMGGGIIFIVAGLAALVACSWYGHQIVTDFYNPLIPTNIKYEFGPAIFIGWAGSALVILGGALLSCSCPGNESKAGYRVPRSYPKSNSSKEYV
B1: the stoichiometry N is 2 and 3.
